Here are results for three substances from US20060172357A1, “Detecting human antibodies in non-human serum” (Genentech, priority 2004, published 2006).

Experiment [1] deals with rhuMAb2H7. Kind of experiment: bridging ELISA, sheep anti-human IgG capture and detection; blocking D1 + 0.2% fish gelatin, other diluents not given.
For experiment [2], the target named is rhuMAb2H7. Kind of experiment: direct sandwich ELISA, sheep anti-human IgG capture, goat anti-human IgG HRP detection, buffer C (with BGG) in all steps, n = 8. On the technique in general: An ELISA detects its analyte on a solid surface through an enzyme-linked reagent.
Experiment [3] has as its target rhuMAb2H7. Kind of experiment: bridging ELISA, sheep anti-human IgG capture and detection; D1 + 0.2% rabbit IgG in blocking, sample and detection buffers.
The target of experiment [4] is rhuMAb2H7. In words: direct sandwich ELISA, sheep anti-human IgG capture, goat anti-human IgG HRP detection, buffer E (HEPES) in all steps, n = 8.
Experiment [5] concerns the target rhuMAb2H7. Kind of experiment: bridging ELISA, sheep anti-human IgG capture and detection; blocking D, sample diluent D1, detection diluent D1.
Experiment [6] addresses rhuMAb2H7. Kind of experiment: direct sandwich ELISA, sheep anti-human IgG capture, goat anti-human IgG (H+L) HRP detection diluted in Buffer D.
Experiment [7] addresses rhuMAb2H7. Kind of experiment: direct sandwich ELISA, sheep anti-human IgG capture, goat anti-human IgG HRP detection, buffer D (with BGG) in all steps, n = 8.
For experiment [8], the target named is rhuMAb2H7. In words: direct sandwich ELISA, sheep anti-human IgG capture, goat anti-human IgG HRP detection, buffer A in all steps, n = 8.
Experiment [9] deals with rhuMAb2H7. Kind of experiment: bridging ELISA, sheep anti-human IgG capture and detection; D1 + 0.2% donkey IgG in blocking, sample and detection buffers.
Experiment [10] addresses rhuMAb2H7. Kind of experiment: direct sandwich ELISA, sheep anti-human IgG capture, goat anti-human IgG (H+L) HRP detection diluted in Buffer A + 0.35 M NaCl (A1).
For experiment [11], the target named is rhuMAb2H7. In words: direct sandwich ELISA, sheep anti-human IgG capture, goat anti-human IgG (H+L) HRP detection diluted in Buffer A + 0.25% CHAPS (A4).
The target of experiment [12] is rhuMAb2H7. In words: direct sandwich ELISA, sheep anti-human IgG capture, goat anti-human IgG (H+L) HRP detection diluted in Buffer A + 5 mM EDTA (A3).
Experiment [13] deals with rhuMAb2H7. Kind of experiment: direct sandwich ELISA, sheep anti-human IgG capture, goat anti-human IgG (H+L) HRP detection diluted in Buffer A + 0.2% BGG (A2).
Experiment [14] concerns the target rhuMAb2H7. Kind of experiment: direct sandwich ELISA, sheep anti-human IgG capture, goat anti-human IgG HRP detection, buffer B in all steps, n = 8.
For experiment [15], the target named is rhuMAb2H7. In words: bridging ELISA, sheep anti-human IgG capture and detection; D1 + 0.2% mouse IgG in blocking, sample and detection buffers.
Experiment [16] deals with rhuMAb2H7. In words: direct sandwich ELISA, sheep anti-human IgG capture, goat anti-human IgG (H+L) HRP detection diluted in Buffer D - BGG (D1).
Experiment [17] has as its target rhuMAb2H7. In words: bridging ELISA, sheep anti-human IgG capture and detection; blocking D, sample diluent D, detection diluent D.
The target in experiment [18] is rhuMAb2H7. In words: direct sandwich ELISA, sheep anti-human IgG capture, goat anti-human IgG (H+L) HRP detection diluted in Buffer A.
Experiment [19] deals with rhuMAb2H7. In words: bridging ELISA, sheep anti-human IgG capture and detection; blocking D, sample diluent D, detection diluent A.
Experiment [20] addresses T1, biotinylated CD20 35-mer (streptavidin plate ELISA; mono- or bis-biotin form not stated).
T1 sequence (peptide, biotinylated (mono or bis not stated); C-terminal amide; disulfide-cyclized): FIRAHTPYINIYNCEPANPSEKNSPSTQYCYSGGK
In words: ELISA, streptavidin plate with CD20 35-mer at 20 µg/ml, 2 wash cycles between steps, goat anti-human IgG (H+L) HRP detection.

Experiment [21] shares this target. In words: ELISA, streptavidin plate with CD20 35-mer at 2 µg/ml, 1 wash cycle between steps, goat anti-human IgG (H+L) HRP detection.
For experiment [22] the target is unchanged. Kind of experiment: ELISA, streptavidin plate with CD20 35-mer at 10 µg/ml, 3 wash cycles between steps, goat anti-human IgG (H+L) HRP detection.
Experiment [23] shares this target. Kind of experiment: ELISA, streptavidin plate with CD20 35-mer at 10 µg/ml, 1 wash cycle between steps, goat anti-human IgG (H+L) HRP detection.
The target is the same in experiment [24]. Kind of experiment: ELISA, streptavidin plate with CD20 35-mer at 10 µg/ml, 2 wash cycles between steps, goat anti-human IgG (H+L) HRP detection.
For experiment [25] the target is unchanged. Kind of experiment: ELISA, streptavidin plate with CD20 35-mer at 20 µg/ml, 1 wash cycle between steps, goat anti-human IgG (H+L) HRP detection.
Experiment [26] deals with Bis-biotin disulfide-cyclized CD20 35-mer. In words: SPR Biacore 3000, method 2: Bis-CD20-35mer on streptavidin chip at 685 RU, 2H7-IgG injected, bivalent analyte model, apparent KD. On the technique in general: Surface plasmon resonance follows binding to a sensor surface in real time, without labels.
For experiment [27], the target named is disulfide-cyclized Bis-biotin CD20 51-mer. In words: SPR Biacore 3000, method 2: Bis-CD20-51mer on streptavidin chip at 1037 RU, 2H7-IgG injected, bivalent analyte model, apparent KD.
Experiment [28] has as its target T2, disulfide-cyclized mono-biotin CD20 35-mer.
T2 sequence (peptide, N-terminal biotin; C-terminal amide; disulfide-cyclized): T1 sequence (peptide, biotinylated (mono or bis not stated); C-terminal amide; disulfide-cyclized)
Kind of experiment: SPR Biacore 3000, method 1: Mono-CD20-35mer on streptavidin chip at 95 RU, 2H7-IgG injected, 1:1 model, apparent KD.

For experiment [29], the target named is full-length CD20 molecule (human) (UniProt P11836). In words: ELISA, full-length CD20 coated at 1 µg/mL in PBS, detection goat anti-hu F(ab')2 HRP.
Experiment [30] has the same target. In words: ELISA, full-length CD20 coated at 1 µg/mL in PBS, detection sheep anti-hu IgG HRP (monkey adsorbed).
Experiment [31] has the same target. Kind of experiment: ELISA, full-length CD20 coated at 5 µg/mL in PBS, detection sheep anti-hu IgG HRP (monkey adsorbed).
Experiment [32] has the same target. In words: ELISA, full-length CD20 coated at 5 µg/mL in PBS, detection goat anti-hu F(ab')2 HRP.

Sequence of full-length CD20 molecule (human) (P11836 whole entry): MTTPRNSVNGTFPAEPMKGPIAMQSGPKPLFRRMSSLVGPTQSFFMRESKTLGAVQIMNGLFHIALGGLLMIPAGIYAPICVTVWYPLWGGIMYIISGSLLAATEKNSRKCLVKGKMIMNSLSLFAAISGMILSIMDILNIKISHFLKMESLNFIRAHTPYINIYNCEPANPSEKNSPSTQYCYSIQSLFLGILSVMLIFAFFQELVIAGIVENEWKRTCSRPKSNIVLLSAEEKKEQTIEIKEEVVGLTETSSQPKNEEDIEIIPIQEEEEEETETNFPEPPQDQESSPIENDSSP
Sequence of rhuMAb2H7 (antibody) (VH): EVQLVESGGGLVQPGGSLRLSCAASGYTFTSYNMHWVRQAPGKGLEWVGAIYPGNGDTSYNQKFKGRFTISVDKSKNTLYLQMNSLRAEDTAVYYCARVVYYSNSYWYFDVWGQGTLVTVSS
Sequence of rhuMAb2H7 (antibody) (VL): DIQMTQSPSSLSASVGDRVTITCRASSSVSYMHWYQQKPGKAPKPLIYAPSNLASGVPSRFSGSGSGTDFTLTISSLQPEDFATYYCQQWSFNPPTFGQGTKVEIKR
Sequence of disulfide-cyclized Bis-biotin CD20 51-mer (peptide, as listed by the source): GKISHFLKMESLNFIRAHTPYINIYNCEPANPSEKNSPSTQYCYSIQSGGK

In the case of “sheep anti-human IgG heavy (H) and light (L) chain, cynomolgus monkey serum adsorbed (Cat #CUS1684, The Binding Site) (antibody)”, the Signal of 2H7 at 240 ng/ml stood at 0.34 O.D with rhuMAb2H7 [1]; 0.06 O.D with rhuMAb2H7 [3]; 1.04 O.D with rhuMAb2H7 [5]; 0.38 O.D with rhuMAb2H7 [9]; 0.09 O.D in the experiment with rhuMAb2H7 [15]; 1.15 O.D with rhuMAb2H7 [17]. Moreover, the Signal, O.D. 450-650 nm at 240 ng/ml rhuMAb2H7 turned out to be 1.88 O.D in the experiment with rhuMAb2H7 [2]; 2.1 O.D in the experiment with rhuMAb2H7 [4]; 1.72 O.D with rhuMAb2H7 [7]; 2.04 O.D with rhuMAb2H7 [8]; 1.91 O.D in the experiment with rhuMAb2H7 [14]. Also, the 240 ng/ml 2H7 (O.D. 450-650 nm) in the experiment with rhuMAb2H7 [6] came to 0.962 O.D; with rhuMAb2H7 [10], 2 O.D; with rhuMAb2H7 [11] it was 2.15 O.D; with rhuMAb2H7 [12], 2.13 O.D; in the experiment with rhuMAb2H7 [13] it was 2.28 O.D; with rhuMAb2H7 [16], 1.65 O.D. In the experiment with rhuMAb2H7 [18], the 240 ng/ml 2H7 (O.D. 450-650 nm) came to 2.23 O.D. The same substance gave a Signal of 256 ng/ml of 2H7 in the experiment with rhuMAb2H7 [19] of 1.6 O.D.

Consider rhuMAb2H7 (antibody), for which the O.D. (450-650 nm) for 160 µg/ml of rhuMAb2H7 in experiment [20] was 0.01 O.D; in [21], 0.063 O.D; in [22], 0.009 O.D; in experiment [23], 0.063 O.D; in experiment [24] it was 0.009 O.D; in experiment [25] it was 0.055 O.D. The Kd stood at 500 nM in [26], 110 nM in experiment [27] and 41700 nM in experiment [28].

For the substance Rituxan (antibody), the signal of 247 ng/ml of Rituxan (O.D.450 nm) in experiment [29] came to 0.065 O.D; in experiment [30], 0.012 O.D; in experiment [31] it was 0.023 O.D; in experiment [32], 0.166 O.D.
